US20040265932A1 (AbbVie / Abbott, published 2004)

Biological target: T1, Mammaglobin polypeptide from breast cancer tissue extract (human, UniProt Q13296 19-93, glycoprotein (Asn 53 and/or Asn 68 may carry sugars))
T1 construct: native protein in tissue extract, 17-23 kD reduced
Assay: legend of FIG. 20A-D; MonoQ fractions, dot blots and Western blots
Procedure: C. Ion Exchange Chromatography The breast cancer tissue extract derived from the patient with invasive, poorly differentiated adenocarcinoma (breast) (FIG. 11, lanes. 4 and 10) was purified using anion exchange chromatography. Specifically, the 800 uL extract was applied to a Mono Q 5/5 column (Pharmacia) equilibrated with 20 mM piperazine, pH 6.0. The proteins were eluted using a linear gradient of sodium chloride. The flow rate was 1 mL/min; the gradient was 20 mM sodium chloride per milliliter of buffer; and the elution time was 50 minutes; creating an elution profile that went from 0 to 1000 mM sodium chloride. The sample loading time was 30 minutes prior to application of the elution gradient. Each 1 mL fraction was sampled. One hundred microliters of each fraction was boiled in the presence of 0.1% beta-mercaptoethanol and was then applied to a well of a dot blot apparatus and the volume was suctioned through a piece of nitrocellulose. The nitrocellulose filter was then developed with the same procedure to develop Western blots, as described hereinabove in Example 7B, using polyclonal antisera recognizing either BU101 or Mam. […]
Protein extracted from breast tissue was fractionated using a MonoQ column at pH6 and eluted using increasing salt gradient. […] The MamBu complex is detected using both antibodies under non-reducing conditions (FIGS. 20C & D). […]

T1 sequence (Q13296 19-93 limits assumed): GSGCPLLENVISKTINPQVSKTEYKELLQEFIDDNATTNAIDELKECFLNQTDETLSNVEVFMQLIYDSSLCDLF

binding result: binds
B1: BU101 polypeptide from breast cancer tissue extract (other)
chain: EFCPALVSELLDFFFISEPLFKLSLAKFDAPPEAVAAKLGVKRCTDQMSLQKRSLIAEVLVKILKKCSV
notes: native protein in tissue extract, about 7 kD reduced
